Measured values published in publication PMC10651859, “Aptamer-based gold nanoparticle aggregates for ultrasensitive amplification-free detection of PSMA”.

B1: aPSMA:Rev1:Rev2 (aPSMA-AuNPs-Aggregate) (structured_DNA)
DNA 1: CTGTGACTCATCTGTGAAGGGCGGCGTTTTCGCTTTTGCGTTTTGGGTCATCTGCTTACGATAGCAATGCT
DNA 2: CACAGATGAGTCACAG
DNA 3: AAAACGCCGCCCTT
modifications: Rev1 3' C3 thiol; Rev2 5' C6 thiol
B2: Control:Rev1:Rev2 (C-AuNPs-Aggregate) (structured_DNA)
DNA 1: CTGTGACTCATCTGTGAAGGGCGGCGTTTTATATGTTACCGTCTAAGTACTCTGTTCCGCGCCGTGTGTTG
DNA 2: CACAGATGAGTCACAG
DNA 3: AAAACGCCGCCCTT
modifications: Rev1 3' C3 thiol; Rev2 5' C6 thiol

Assays:
[1] = biological target: T1, hrPSMA (human recombinant Prostate Specific Membrane Antigen, Sinobiological) (human, UniProt Q04609 44-750); experiment: AuNP aggregate disassembly (DLS size and count rate, plasmon shift); size change significant above 50 pM, count rate from 500 fM; detection thresholds, not Kd; 1x PBS pH 7.4; 37 C for 30 min stated for the initial 50 pM hrPSMA screening; settings: protein: commercial; chain copies: 2; label: 13 nm gold nanoparticles on Rev1 and Rev2; aPSMA 1-16 paired with Rev1, 17-30 with Rev2; 3' aptamer portion single-stranded; many copies per aggregate
T1 sequence (Q04609 44-750): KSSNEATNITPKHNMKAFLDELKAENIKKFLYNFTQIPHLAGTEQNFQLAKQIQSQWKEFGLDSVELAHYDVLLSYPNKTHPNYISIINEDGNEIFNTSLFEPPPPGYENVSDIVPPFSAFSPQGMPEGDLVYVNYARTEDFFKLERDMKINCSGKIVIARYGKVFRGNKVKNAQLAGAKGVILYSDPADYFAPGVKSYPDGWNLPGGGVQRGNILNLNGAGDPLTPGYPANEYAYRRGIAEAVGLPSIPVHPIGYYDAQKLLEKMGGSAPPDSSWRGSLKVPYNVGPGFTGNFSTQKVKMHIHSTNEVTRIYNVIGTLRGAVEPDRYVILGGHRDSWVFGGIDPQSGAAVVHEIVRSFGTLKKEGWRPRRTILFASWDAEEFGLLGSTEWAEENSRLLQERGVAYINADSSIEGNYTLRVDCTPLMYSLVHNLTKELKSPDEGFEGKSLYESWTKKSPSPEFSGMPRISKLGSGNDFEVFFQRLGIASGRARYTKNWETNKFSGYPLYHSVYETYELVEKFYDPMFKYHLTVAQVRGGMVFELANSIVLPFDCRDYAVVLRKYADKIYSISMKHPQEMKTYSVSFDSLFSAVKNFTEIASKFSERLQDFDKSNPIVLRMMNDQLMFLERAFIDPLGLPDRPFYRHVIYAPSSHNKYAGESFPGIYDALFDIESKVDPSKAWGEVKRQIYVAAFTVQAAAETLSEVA

[2] = biological target: T1, hrPSMA (human recombinant Prostate …); experiment: AuNP aggregate disassembly (DLS); hrPSMA series; no significant trend; 1x PBS pH 7.4; 37 C for 30 min stated for the initial 50 pM hrPSMA screening; settings: protein: commercial; chain copies: 2; label: 13 nm gold nanoparticles on Rev1 and Rev2; Control 1-16 paired with Rev1, 17-30 with Rev2; 3' portion single-stranded; many copies per aggregate
[3] = biological target: PSMA on intact LNCaP SEVs (human? (LNCaP cells), UniProt Q04609 1-750); experiment: AuNP aggregate disassembly (plasmon peak shift); intact SEVs; 1x PBS pH 7.4; 37 C for 30 min stated for the initial 50 pM hrPSMA screening; settings: protein: native; chain copies: 2; label: 13 nm gold nanoparticles on Rev1 and Rev2; Control 1-16 paired with Rev1, 17-30 with Rev2; 3' portion single-stranded; many copies per aggregate
Sequence of PSMA on intact LNCaP SEVs (Q04609 whole entry): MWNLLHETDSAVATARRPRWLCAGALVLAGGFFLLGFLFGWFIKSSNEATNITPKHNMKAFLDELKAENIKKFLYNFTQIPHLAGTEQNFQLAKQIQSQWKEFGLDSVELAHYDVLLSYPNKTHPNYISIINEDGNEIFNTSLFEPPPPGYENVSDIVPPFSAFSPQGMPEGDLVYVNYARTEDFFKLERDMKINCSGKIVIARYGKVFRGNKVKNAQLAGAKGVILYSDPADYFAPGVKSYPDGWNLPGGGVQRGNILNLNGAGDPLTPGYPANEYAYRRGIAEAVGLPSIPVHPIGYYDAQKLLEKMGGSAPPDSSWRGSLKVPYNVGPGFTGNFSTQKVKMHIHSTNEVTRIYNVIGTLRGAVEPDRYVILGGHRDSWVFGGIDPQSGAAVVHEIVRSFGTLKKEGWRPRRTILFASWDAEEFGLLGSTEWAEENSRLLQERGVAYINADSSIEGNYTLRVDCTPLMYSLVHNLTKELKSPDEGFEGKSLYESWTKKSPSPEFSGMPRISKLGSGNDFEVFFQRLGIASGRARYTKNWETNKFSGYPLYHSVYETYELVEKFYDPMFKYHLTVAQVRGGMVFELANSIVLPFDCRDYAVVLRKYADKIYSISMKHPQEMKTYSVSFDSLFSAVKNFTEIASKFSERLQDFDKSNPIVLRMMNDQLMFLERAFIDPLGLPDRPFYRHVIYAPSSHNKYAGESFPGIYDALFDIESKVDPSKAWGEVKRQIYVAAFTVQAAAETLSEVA

Row | Binder | binding result [1] | binding result [2] | binding result [3]
1 | B1 | binds | – | –
2 | B2 | – | no binding | no binding
